Results from patent US11193155B2, “Designer α 6-fucosidase mutants enable direct core fucosylation of intact N-glycopeptides and N-glycoproteins” (UNIVERSITY OF MARYLAND, COLLEGE PARK, priority 2016, dated 2021).
Residue numbers refer to the chain shown, from its start. Names may count otherwise.

What was measured:
[1] = target: T1, Aleuria aurantia lectin (AAL) (Aleuria aurantia, UniProt P18891); test: ELISA analysis of binding between lectin AAL and glycoproteins or released N-glycans; conditions: for AAL binding: glycoprotein coated on plate; for EC50: glycoprotein coated on plate (10 μg/ml), AAL-biotin serial dilution
T1 sequence (P18891 1-313): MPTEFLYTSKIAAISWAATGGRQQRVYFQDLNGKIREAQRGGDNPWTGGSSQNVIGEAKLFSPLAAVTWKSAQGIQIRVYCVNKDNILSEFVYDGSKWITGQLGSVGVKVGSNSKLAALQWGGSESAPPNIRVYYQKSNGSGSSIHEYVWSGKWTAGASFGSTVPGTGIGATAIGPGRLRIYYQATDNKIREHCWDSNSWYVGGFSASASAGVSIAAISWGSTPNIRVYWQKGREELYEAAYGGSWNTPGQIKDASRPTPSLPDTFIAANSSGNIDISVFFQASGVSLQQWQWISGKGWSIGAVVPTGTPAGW
Source text: FIG. 9 ELISA analysis of the binding between lectin AAL and glycoproteins or released N-glycans. The glycoproteins or released N-glycans (tagged with Fmoc) were immobilized on the plates and probed by serial dilutions of the lectin. A) AAL binding with RNase B (20) and fucosylated RNase B (21); B) AAL binding with non-fucosylated glycoform of rituximab (28) and fucosylated rituximab glycoform (30); C) AAL binding with the PNGase F released high-mannose N-glycans released from 20 and 21; D) ALL binding with the PNGase F released complex type N-glycans from 28 and 30.
The glycoprotein (20, 21, 28 or 30) (10 μg/ml) in a phosphate buffer (pH 7.5) was coated onto a 96-well plate (UltraCruz®) at 4° C. for overnight. After wash twice, 2% bovine serum albumin in PBS containing Tween® 20 (PBST buffer) was added to block the plate for 2 h. Subsequently, after washed twice again, a serial dilution of AAL-biotin ranging from 0.1 μM to 1000 μM in PBST buffer was added and the plate was incubated for 1 h. After washing, peroxidase streptavidin (2 μg/mL) (Jackson ImmunoResearch Inc.) was added and incubated for 1 h. Finally, 100 μL of substrate, 3, 3′, 5, 5′-tetramethylbenzidine was added for signal development. The reaction was stopped by the adding 100 μL of 20% sulfuric acid (v/v). The absorbance at 450 nm was measured using SpectraMax M5 microplate reader (Molecular Devices). For the binding of the N-glycans, the Fmoc-labeled N-glycans released from 20, 21, 28 and 30 (1 μg/ml) were coated on the plate and the ELISA analysis was performed in the same manner as that of the glycoproteins.

[2] = buffer; cited from earlier work
physchem = type: physicochemical; conditions: buffer, pH 7.4
Source text: Initially, the D200 mutants were examined as potential glycosynthases using two types of activated fucosyl donors with opposite anomeric configuration as substrates. For nucleophile mutant such as D200G, a fucosyl fluoride with reversed anomeric configuration, β-fucosyl fluoride or β-fucosyl azide, should be applied to mimic the enzyme-substrate intermediate^52,53,67. However, β-glycosyl fluorides are quite unstable and are subjected to spontaneous hydrolysis in aq. solutions^42. Indeed, most successful glycosynthases have been derived so far from retaining β-glycosidases that take the α-glycosyl fluoride as donor substrate. […] Thus, the potential glycosylation activity of the nucleophilic mutants, including D200G, D200S, D200A, and D200S, were tested using both the β-glycosyl azide (1) and the β-glycosyl fluoride (2) as the donor substrates and the Fmoc-Asn(GlcNAc)-OH (4)^69 as the acceptor substrate (FIG. 3). The reactions were run with different amounts of enzymes and were monitored by reverse-phase HPLC analysis.

[3] = Transglycosylation kinetics of AlfC α-fucosidase mutants; type: biochemical; conditions: apparent; donor sugar 0.2 to 2.0 mM, acceptor 2.0 mM, sodium phosphate 0.1M pH 7.5, 42° C.
Protocol: The kinetic studies on transglycosylation were carried out at 42° C. in sodium phosphate (0.1 M, pH 7.5). The transglycosylation product was detected and quantitated by HPLC analysis. The concentration of the donor substrates (1-3) was varied from 0.2 to 2.0 mM, while that of the acceptor (4) was fixed (2 mM). KM and kcat values (strictly, apparent KM and kcat, as they were determined at a fixed, nonsaturating, co-substrate concentration) were determined by fitting the initial velocity curves to the Michaelis-Menten equation by nonlinear regression in GraFit.

[4] = Glycoligase (transfucosylation) activity on acceptor 4, pH and temperature profiles; type: biochemical; conditions: donor 3, acceptor 4, pH 7.5, 42° C.
Protocol: A) pH profile; B) temperature profile of its catalysis. […] The transglycosylation product was quantitated by HPLC analysis. To investigate temperature profile of AlfC α-fucosidase in transglycosylation reaction, a mixture of donor sugar 3 (20 mM), acceptor sugar (4) (10 mM) and enzyme AlfC E274G (0.2 mg/mL) was incubated in a PBS buffer (0.1 M, pH7.5) containing 5% DMSO. The reactions were carried out for 20 min at various temperatures, including 25° C., 30° C., 35° C., 40° C., 45° C., 50° C. and 55° C. The transglycosylation product was quantitated by HPLC analysis.
Next, the potential glyco-ligase activity was tested of the general acid/base residue mutants using the α-fucosyl fluoride (3) as the donor substrate (FIG. 3).

[5] = Hydrolysis of α-fucosyl fluoride in the absence of the GlcNAc acceptor; type: biochemical
rituximab = test: Defucosylation of rituximab by wild-type AlfC α-fucosidase; type: biochemical
Source text: The potent transfucosylation activity of AlfC α-fucoligase towards glycopeptides and glycoproteins prompted further exploring of its application for glycoengineering of therapeutic monoclonal antibodies. Core fucosylation of the Fc domain N-glycans plays a pivotal role in modulating the functions of antibodies and their therapeutic efficacy^8,74. It was previously developed by the current inventors a chemoenzymatic Fc glycan remodeling method that consists of deglycosylation and glycosynthase-catalyzed glycan transfer to produce homogeneous Fc glycoforms^65,66,75. If the fucoligase mutant could act on intact antibody, then it would further expand the repertoire of the toolbox for antibody Fc glycan engineering. To test this possibility, rituximab (26) was selected as a model system. First, rituximab was deglycosylated with Endo-S followed by defucosylation with the wild type AlfC α-fucosidase to give the GlcNAc-rituximab (27) (FIG. 7). […] The non-fucosylated complex type glycoform (28) of rituximab was synthesized by the EndoS-D233Q catalyzed glycosylation with glycan oxazoline (24) as the donor, following previously published procedure^75. These two glycoforms (27 and 28) were used as potential substrates for examining the AlfC fucoligase mutants. […] The product was readily isolated by protein A affinity chromatography. To confirm the identity of the Fucα1,6GlcNAc-rituximab (29), the product was treated with protease IdeS which specifically hydrolyzes IgG antibody to release the monomeric Fc domain, and the released Fc was analyzed by ESI-MS. […] As described previously, Fucα1,6GlcNAc-rituximab (29) was an excellent substrate for EndoS-D233Q^75. Indeed, incubation of 29 with EndoS-D233Q and glycan oxazoline (24) gave the expected core-fucosylated complex type glycoform of rituximab (30) in excellent yield, further confirming that the 29 was the expected Fucα1,6GlcNAc-rituximab.
Finally, the direct fucosylation of the intact rituximab (28) was tested carrying the full size complex type Fc N-glycans. […]

28: non-fucosylated complex type glycoform of rituximab [compound 28]
AAL binding [1]: did not show any detectable affinity

C[C@@H]1O[C@H](F)[C@@H](O)[C@H](O)[C@@H]1O [β-fucosyl fluoride]
half-life (spontaneous hydrolysis) [2]: ca. 20 min

C[C@@H]1O[C@H](F)[C@@H](F)[C@H](O)[C@@H]1O [compound 2, 2-deoxy-2-fluoro-β-fucosyl fluoride]
half-life (physchem): 6 h

30: core-fucosylated complex type glycoform of rituximab [compound 30]
AAL binding [1]: specific recognition | EC50 [1]: 15 µM | affinity for AAL relative to core-fucosylated RNase B (21) ([1]; glycoproteins): about 17 fold

B1: E274G: Lactobacillus casei α1,6-fucosidase (AlfC) mutant at general acid/base residue E274 (protein)
chain: MNDNVAWFKQAKYGMMIHWGLYSLLAGEYRGESSSAYAEWIQSKFQIPNAEYGNLATAFNPLYFDAKKIVALAKQCGMQYLVVTTKHHDGFAMYHSKVDAYNVYDATPFHRDIIGELAEACQKAGLKFGLYYSQDLDWHDPNGGGYKSNDVETAGTTWDNSWDFPDEDQKNFDLCFDNKILPQIKEIMSNYGDIATAWFDVPMTLSEAQSQTIYDTVRELQPNCLINSRLGNGKYDFVSLGDNEIPKNKEDMNKTDVDYNEITGFKPSPLGLYGTAGTINDSWGFSYHDQNWKTPRTLYRYKQHLNDFGINYLLNVGLDPLGRVPMMAEENLLAAKALEDEANRL
Km [3]: 250 ± 30 µM | kcat [3]: 1.38 ± 0.15 × 10^2 min^−1 | catalytic activity to transfer fucose to GlcNAc of acceptor 4 [4]: excellent catalysts for fucosylation | hydrolysis of α-fucosyl fluoride [5]: only hydrolyzed α-fucosyl fluoride slowly

B2: wild type AlfC: α1,6-fucosidase from Lactobacillus casei (AlfC), wild type (protein, listed as Lactobacillus casei)
chain: B1 chain with G274E
hydrolysis of α-fucosyl fluoride [5]: could quickly hydrolyze the donor substrate | hydrolytic (defucosylation) activity (rituximab; intact rituximab, before Endo-S treatment, listed as wild type AlfC α-fucosidase): almost no activity | hydrolytic (defucosylation) activity (rituximab; intact rituximab, before Endo-S treatment, listed as wild-type AlfC α-fucosidase): unable to remove the fucose moiety | hydrolytic (defucosylation) activity (rituximab; rituximab after Endo-S deglycosylation): good hydrolytic activity

B3: E274S: Lactobacillus casei α1,6-fucosidase (AlfC) mutant at general acid/base residue E274 (protein)
chain: B1 chain with G274S
Km [3]: 260 ± 30 µM | kcat [3]: 2.42 ± 0.14 × 10^2 min^−1 | catalytic activity to transfer fucose to GlcNAc of acceptor 4 [4]: excellent catalysts for fucosylation | hydrolysis of α-fucosyl fluoride [5]: only hydrolyzed α-fucosyl fluoride slowly

B4: 21: core-fucosylated RNase B glycoforms carrying core fucosylated high-mannose glycans (protein, UniProt P61823 27-150, looked up)
Ribonuclease pancreatic: KETAAAKFERQHMDSSTSAASSSNYCNQMMKSRNLTKDRCKPVNTFVHESLADVQAVCSQKNVACKNGQTNCYQSYSTMSITDCRETGSSKYPNCAYKTTQANKHIIVACEGNPYVPVHFDASV
modifications: core-fucosylated high-mannose glycans
AAL binding [1]: specific binding | EC50 [1]: 275 µM

B5: 20: bovine ribonuclease B, natural glycoprotein with heterogeneous high-mannose type N-glycan (protein)
chain: B4 Ribonuclease pancreatic
AAL binding [1]: didn't show any binding
